This data set deals with the molecule itself. Briefly: native gel or EMSA; purified 14-3-3 isoforms (14 μM per monomer) without or with PKA (2 μM) in 50 mM Hepes-NaOH pH 7.3, 10 mM NaCl, 4 mM MgCl2, 60 μM ATP, 2 h at 30°C; non-denaturing 15% gel, pH 8.6; dimer and monomer regions of the gel.

B1: untagged human 14-3-3σ devoid of the C-terminal flexible peptide (residues 232-248) (domain or fragment, UniProt P31947 1-231, looked up)
chain: MERASLIQKAKLAEQAERYEDMAAFMKGAVEKGEELSCEERNLLSVAYKNVVGGQRAAWRVLSSIEQKSNEEGSEEKGPEVREYREKVETELQGVCDTVLGLLDSHLIKEAGDAESRVFYLKMKGDYYRYLAEVATGDDKKRIIDSARSAYQEAMDISKKEMPPTNPIRLGLALNFSVFHYEIANSPEEAISLAKTTFDEAMADLHTLSEDSYKDSTLIMQLLRDNLTLWT
notes: human 14-3-3 protein sigma, Uniprot P31947, residues 1-231 out of 248; also called 14-3-3σΔC; σΔC; source: purified (ammonium sulfate fractionation, anion-exchange and gel-filtration chromatography); also E. coli BL21(DE3), co-expressed with Tau and PKA, in lysate
In the case of B1, the binding result is listed as “binds”.

B2: full-length human 14-3-3γ (natural protein, UniProt P61981 1-247, looked up)
chain: MVDREQLVQKARLAEQAERYDDMAAAMKNVTELNEPLSNEERNLLSVAYKNVVGARRSSWRVISSIEQKTSADGNEKKIEMVRAYREKIEKELEAVCQDVLSLLDNYLIKNCSETQYESKVFYLKMKGDYYRYLAEVATGEKRATVVESSEKAYSEAHEISKEHMQPTHPIRLGLALNYSVFYYEIQNAPEQACHLAKTAFDDAIAELDTLNEDSYKDSTLIMQLLRDNLTLWTSDQQDDDGGEGNN
notes: human 14-3-3 protein gamma, Uniprot P61981, full length
Consider B2, for which the binding result was “binds”.
